Measured values: US20080039336A1

Target: TRPM4 of rat-derived INS-1 and RINm5F cells (endogenous) (rat) (UniProt Q9ESQ5)
Assay: cell-based or functional assay

Chain of TRPM4 of rat-derived INS-1 and RINm5F cells (endogenous) (rat) (Q9ESQ5 whole entry): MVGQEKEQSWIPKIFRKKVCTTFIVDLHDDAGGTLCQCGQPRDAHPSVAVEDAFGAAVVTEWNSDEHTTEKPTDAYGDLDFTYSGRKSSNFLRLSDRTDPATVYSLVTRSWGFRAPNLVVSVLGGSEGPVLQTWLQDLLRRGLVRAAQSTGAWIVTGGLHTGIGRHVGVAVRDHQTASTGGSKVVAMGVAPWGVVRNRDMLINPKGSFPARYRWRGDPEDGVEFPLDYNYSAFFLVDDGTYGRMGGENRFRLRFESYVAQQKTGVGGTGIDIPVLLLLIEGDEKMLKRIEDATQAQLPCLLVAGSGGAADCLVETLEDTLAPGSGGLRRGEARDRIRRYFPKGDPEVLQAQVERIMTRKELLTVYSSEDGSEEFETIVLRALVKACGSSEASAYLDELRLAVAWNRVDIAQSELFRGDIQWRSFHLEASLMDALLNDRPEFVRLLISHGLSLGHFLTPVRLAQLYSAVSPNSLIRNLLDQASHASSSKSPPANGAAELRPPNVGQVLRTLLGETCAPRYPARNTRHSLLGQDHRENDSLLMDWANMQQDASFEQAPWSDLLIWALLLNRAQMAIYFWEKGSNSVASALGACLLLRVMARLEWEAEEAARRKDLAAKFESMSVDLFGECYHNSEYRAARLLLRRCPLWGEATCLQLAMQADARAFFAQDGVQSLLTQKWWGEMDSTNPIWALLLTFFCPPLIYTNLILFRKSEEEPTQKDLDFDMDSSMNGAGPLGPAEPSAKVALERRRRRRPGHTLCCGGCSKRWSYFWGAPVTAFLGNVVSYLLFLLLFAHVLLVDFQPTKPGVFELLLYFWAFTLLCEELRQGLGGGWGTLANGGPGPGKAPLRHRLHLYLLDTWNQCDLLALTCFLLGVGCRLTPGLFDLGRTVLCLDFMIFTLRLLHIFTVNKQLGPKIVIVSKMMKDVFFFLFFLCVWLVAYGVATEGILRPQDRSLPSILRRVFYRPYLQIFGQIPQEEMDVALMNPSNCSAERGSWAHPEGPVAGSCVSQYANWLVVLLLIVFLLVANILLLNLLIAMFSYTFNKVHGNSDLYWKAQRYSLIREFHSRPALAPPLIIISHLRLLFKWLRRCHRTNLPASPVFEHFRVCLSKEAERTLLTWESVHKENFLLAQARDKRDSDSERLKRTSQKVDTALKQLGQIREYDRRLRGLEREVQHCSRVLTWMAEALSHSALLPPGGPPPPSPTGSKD

With ΔN-TRPM4 (from UniProt Q8TD43 178-1214) the insulin secretion of INS-1 cells at 25 mM glucose, fold over basal 4 mM, static incubation (mock-transfected control ~2.2-fold) was 1.3 fold.
